Assay in all cases: purified protein
Common to all, as to assay type: biochemical, Sulfolobus acidocaldarius

Substrate in data set [1]: CC(=O)[C@](C)(O)C(=O)O
The note with it: 0.22 mM NADPH, 10 mM MgSO4, 100 mM phosphate pH 8.0, 25 °C, racemic 2-acetolactate used, concentration counted as the S enantiomer.

Substrate in data set [2]: NC(=O)C1=CN([C@@H]2O[C@H](COP(=O)(O)OP(=O)(O)OC[C@H]3O[C@@H](n4cnc5c(N)ncnc54)[C@H](O)[C@@H]3O)[C@@H](O)[C@H]2O)C=CC1
The settings on record: 5 mM 2S-AL (saturating), 10 mM MgSO4, 100 mM phosphate pH 8.0, 25 °C, varied: cofactor.

Substrate in data set [3]: NC(=O)C1=CN([C@@H]2O[C@H](COP(=O)(O)OP(=O)(O)OC[C@H]3O[C@@H](n4cnc5c(N)ncnc54)[C@H](OP(=O)(O)O)[C@@H]3O)[C@@H](O)[C@H]2O)C=CC1
The note with it: 5 mM 2S-AL (saturating), 10 mM MgSO4, 100 mM phosphate pH 8.0, 25 °C, varied: cofactor.

B1: Sac-KARI (Sulfolobus acidocaldarius DSM 639) (protein)
chain: MAKIYTDKDVSLDVIKEKRVAVLGYGSQGRAWALNLRDSGIKVSVGLEREGNSWKQAENDGFKPLRTEEAVRNSDIIIFLLPDMIQRTVYLERVKPYLKEGMDLVFAHGFNIHYRLIEPPSNVDVYMIAPKAPGPIVREYFAKGGGVPALVATYQDHSGKALQKALAVAKAIGATRAGVIETTFKEETETDLFGEQVDLVGGVMQLMRYAFQTLVEAGYQPEVAYFETINEMKLIVDLVYEKGFSGMLTAVSDTAKYGGMTVGKMVIDESVKERMKKALDNIRSGKFAEKWVEEYGKGANTIKEGMKEVDNSTEEKVGRSLRDIILRGKPKS
notes: pET-21a NdeI/XhoI, His-tag retained; E. coli BL21(DE3); heat step, Ni-NTA, gel filtration; homodimer ~70 kDa (theoretical ~74 kDa); beta2-alphaB loop LEREGNS; R49, S53, D191, E195, E227, E231
A word on the Km: it is the concentration of substrate that gives half-maximal velocity. As usually defined, the kcat is the maximal rate divided by the concentration of active sites. As a reminder, the kcat/Km is the second-order rate constant that governs catalysis at low substrate concentration. On to B1, for which the values for the Km in data set [1], in data set [2] and in data set [3] were 140 ± 6 µM, 6.0 ± 0.8 µM and 0.4 ± 0.2 µM, respectively. In addition, the kcat in data set [1] worked out at 0.068 ± 0.001 s⁻¹; in data set [2] it was 0.056 ± 0.001 s⁻¹; in data set [3], 0.064 ± 0.001 s⁻¹. For the same protein, the kcat/Km in data set [1] was 490 ± 20 M⁻¹ s⁻¹; in data set [2], 9500 ± 1300 M⁻¹ s⁻¹; in data set [3] it was 186000 ± 80500 M⁻¹ s⁻¹.
